Measurements as given in article PMC7020254.

What was measured:
P00451 [1] = experiment: AUC; sedimentation velocity, 105,000 g, 20 C, A280; Helixate in 2x formulation buffer treated with 80 uM ClO- or control buffer, then buffer exchange on a desalting column; c(s) 0-100 S; aggregates 12-100 S relative to 5-100 S
P00451 [2] = experiment: AUC; sedimentation velocity, 105,000 g, 20 C, A280; Helixate desalted into HBS/Ca/PS-80, treated 10 min with 80 uM ClO- or control buffer, exchanged into HBS/Ca/PS-80; c(s) 0-100 S; aggregates 12-100 S relative to 5-100 S
P00451 [3] = experiment: AUC; sedimentation velocity, 105,000 g, 20 C, A280; Helixate in its therapeutic formulation buffer; c(s) 0-200 S; aggregates integrated 15-100 S
P00451 [4] = experiment: AUC; sedimentation velocity, 105,000 g, 20 C, A280; Helixate exchanged into HBS/Ca/PS-80 and immediately run; c(s) 0-200 S; aggregates integrated 12-100 S

Substance | percent of signal in aggregates (12-100 S relative to 5-100 S) (P00451 [1]) | percent of signal in aggregates (12-100 S relative to 5-100 S) (P00451 [2]) | percent of signal in aggregates (15-100 S) (P00451 [3]) | percent of signal in aggregates (12-100 S) (P00451 [4])
Helixate FS (recombinant full-length factor VIII) oxidized with 80 uM ClO- | 14.5 and 9.2% | 13.4 and 13.3% of the signal | – | –
Helixate FS (recombinant full-length factor VIII), non-oxidized | 14.5 and 9.2% | 13.4 and 13.3% of the signal | 18.9% and 15.9% | 18.9% and 15.9%
